The data set in a line: self-splicing fitness, log relative to wild type (ln ratio); higher = more splicing; Tetrahymena group I intron in knt gene, E. coli kanamycin selection, DiMSum; sequences stand for … in CUCUCU…GGAGGGAAAAGUUAUCAGGCAUGCACCUGGUAGCUAGUCUUUAAACCAAUAGAUUGCAUCGGUUUAAAAGGCAAGACCGUCAAAUUGCGGGAAAGGGGUCAACAGCCGUUCAGUACCAAGUCUCAGGGGAAACUUUGAGAUGGCCUUGCAAAGGGUAUGGUAAUAAGCUGACGGACAUGGUCCUAACCACGCAGCCAAGUCCUAAGUCAACAGAUCUUCUGUUGAUAUGGAUGCAGUUCACAGACUAAAUGUCGGUCGGGGAAGAUGUAUUCUUCUCAUAAGAUAUAGUCGGACCUCUCCUUAAUGGGAGCUAGCGGAUGAAGUGAUGCAACACUGGAGCCGCUGGGAACUAAUUUGUAUGCGAAAGUAUAUUGAUUAGUUUUGGAGUACUCGUGGUCG
The essentials: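 A randomised library covering all eight P1ex-region intron nucleotides was built with the intron in the knt kanamycin-resistance gene on pET-22b(+) and held in E. coli BL21(DE3). Cells were grown overnight at 37°C or 30°C on LB agar, with or without 25 μg/mL kanamycin, plus 100 μg/mL carbenicillin, 50 μM IPTG and 0.2% rhamnose, and pooled colonies were amplicon-sequenced on an Illumina HiSeq 2500. DiMSum fitness is the error-weighted combination of wild-type-normalised replicate fold changes, kanamycin versus none.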

± gives the uncertainty stated by the source.

AGCUAGCAAUAUUACGGCGU: the “self-splicing fitness (ln)” value reads like this: (30 °C) 0.111 ± 0.11; (37 °C) -0.724 ± 0.13.

As to AAUUAGCAAUAUUACGUUGC, the “self-splicing fitness (ln)” value (30 °C) was -3.47 ± 0.46 and the “self-splicing fitness (ln)” value (37 °C) is -2.75 ± 0.38.

With ACAAAGCAAUAUUACGCGAU, the “self-splicing fitness (ln)” value runs as follows: (30 °C) -2.75 ± 0.14; (37 °C) -2.22 ± 0.16.

On to AGCCAGCAAUAUUACGGAAC, for which the “self-splicing fitness (ln)” value is, setting by setting: (30 °C) -2.72 ± 0.18; (37 °C) -3.1 ± 0.3.

As for CUCAAGCAAUAUUACGGAUG, the “self-splicing fitness (ln)” value runs as follows: (30 °C) -1.48 ± 0.088; (37 °C) -1.05 ± 0.13.

Consider CAGCAGCAAUAUUACGGUGA, for which the “self-splicing fitness (ln)” value was -2 ± 0.083 (30 °C) and -0.913 ± 0.086 (37 °C).

Take AAUUAGCAAUAUUACGUACC: the “self-splicing fitness (ln)” value was -0.499 ± 0.21 (30 °C) and -0.307 ± 0.29 (37 °C).

With UUAUAGCAAUAUUACGUGGG, the “self-splicing fitness (ln)” value was -3.41 ± 0.26 (30 °C) and -2.15 ± 0.23 (37 °C).

For the sequence UGAAAGCAAUAUUACGCGAG, the “self-splicing fitness (ln)” value reads like this: (30 °C) -1.63 ± 0.11; (37 °C) -0.0143 ± 0.1.

Consider UCUCAGCAAUAUUACGCCCU, for which the “self-splicing fitness (ln)” value was -2.5 ± 0.35 (30 °C) and -2 ± 0.44 (37 °C).

For GUAUAGCAAUAUUACGCUAA, the “self-splicing fitness (ln)” value (30 °C) is -2.52 ± 0.2 and the “self-splicing fitness (ln)” value (37 °C) is -1.57 ± 0.16.

On to GAACAGCAAUAUUACGAUCC, for which the “self-splicing fitness (ln)” value was -2.18 ± 0.17 (30 °C) and -0.784 ± 0.24 (37 °C).

With CACGAGCAAUAUUACGGGGC, the “self-splicing fitness (ln)” value was -3.02 ± 0.14 (30 °C) and -2.42 ± 0.19 (37 °C).

Take CGGGAGCAAUAUUACGGGUU: the “self-splicing fitness (ln)” value (30 °C) is -2.34 ± 0.32 and the “self-splicing fitness (ln)” value (37 °C) is -2.53 ± 0.26.

As to GAUAAGCAAUAUUACGCAGC, the “self-splicing fitness (ln)” value reads like this: (30 °C) -3.45 ± 0.47; (37 °C) -0.777 ± 0.29.

Turning to AAGUAGCAAUAUUACGGCAA, the “self-splicing fitness (ln)” value is 0.196 ± 0.18 (30 °C) and -0.154 ± 0.22 (37 °C).

As for UUUAAGCAAUAUUACGCGAU, the “self-splicing fitness (ln)” value is, setting by setting: (30 °C) -3.34 ± 0.43; (37 °C) -2.32 ± 0.29.

As to CAAGAGCAAUAUUACGGGCU, for the setting “37 °C”, the “self-splicing fitness (ln)” value is -2.6 ± 0.34.

Turning to UCGUAGCAAUAUUACGUCGG, the “self-splicing fitness (ln)” value was -1.49 ± 0.15 (30 °C) and -0.337 ± 0.17 (37 °C).

Take CCCCAGCAAUAUUACGGUUC: the “self-splicing fitness (ln)” value reads like this: (30 °C) -4.25 ± 0.25; (37 °C) -2.97 ± 0.28.

On to UGUGAGCAAUAUUACGCAUU, for which the “self-splicing fitness (ln)” value was -4.49 ± 0.29 (30 °C) and -1.77 ± 0.3 (37 °C).

As to UUCAAGCAAUAUUACGACUA, the “self-splicing fitness (ln)” value was determined as 0.15 ± 0.12 (30 °C) and 0.446 ± 0.14 (37 °C).

For the sequence UGCUAGCAAUAUUACGACAU, the “self-splicing fitness (ln)” value reads like this: (30 °C) -2.027 ± 0.016; (37 °C) -1.05 ± 0.034.

As to UCACAGCAAUAUUACGCAAC, the “self-splicing fitness (ln)” value (37 °C) is -3.26 ± 0.39.

For the sequence AGGGAGCAAUAUUACGUGUA, the “self-splicing fitness (ln)” value (30 °C) is -3.24 ± 0.35 and the “self-splicing fitness (ln)” value (37 °C) was -3.06 ± 0.31.

UUCGAGCAAUAUUACGAGUU: the “self-splicing fitness (ln)” value was -1.62 ± 0.18 (30 °C) and -0.549 ± 0.17 (37 °C).

On to CUCAAGCAAUAUUACGGUUU, for which the “self-splicing fitness (ln)” value reads like this: (30 °C) -2.38 ± 0.1; (37 °C) -2.36 ± 0.14.

Regarding CUAUAGCAAUAUUACGUGUA, the “self-splicing fitness (ln)” value runs as follows: (30 °C) -2.77 ± 0.33; (37 °C) -2.55 ± 0.26.

For CGACAGCAAUAUUACGUGUC, the “self-splicing fitness (ln)” value (30 °C) is -3.39 ± 0.13 and the “self-splicing fitness (ln)” value (37 °C) was -2.01 ± 0.12.

Consider UCCGAGCAAUAUUACGAAGU, for which, where the note is “37 °C”, the “self-splicing fitness (ln)” value was -1.4 ± 0.29.

On to UUCUAGCAAUAUUACGGUGG, for which the “self-splicing fitness (ln)” value by setting is: (30 °C) -4.34 ± 0.39; (37 °C) -2.5 ± 0.26.

For the sequence UCAGAGCAAUAUUACGGAUA, the “self-splicing fitness (ln)” value (30 °C) is -2.81 ± 0.3.

On to GUGCAGCAAUAUUACGUCGG, for which the “self-splicing fitness (ln)” value is, setting by setting: (30 °C) -2.84 ± 0.16; (37 °C) -1.47 ± 0.17.

In the case of UAUGAGCAAUAUUACGACUA, the “self-splicing fitness (ln)” value was -0.118 ± 0.11 (30 °C) and 0.0355 ± 0.12 (37 °C).

With ACAUAGCAAUAUUACGGGAC, the “self-splicing fitness (ln)” value runs as follows: (30 °C) -3.23 ± 0.14; (37 °C) -1.37 ± 0.12.

Regarding UGGAAGCAAUAUUACGUAGA, the “self-splicing fitness (ln)” value (30 °C) was -2.06 ± 0.13 and the “self-splicing fitness (ln)” value (37 °C) is -1.01 ± 0.13.

For GGAAAGCAAUAUUACGCGGC, the “self-splicing fitness (ln)” value (30 °C) was -2.98 ± 0.41 and the “self-splicing fitness (ln)” value (37 °C) is -2.03 ± 0.45.

With GUGCAGCAAUAUUACGCACC, where the note is “37 °C”, the “self-splicing fitness (ln)” value was -1.79 ± 0.35.

On to UGCUAGCAAUAUUACGGUUU, for which the “self-splicing fitness (ln)” value is -1.27 ± 0.062 (30 °C) and -0.216 ± 0.073 (37 °C).

Values taken from the supplement of paper PMC7877785.
